Reference: patent publication US11702475B2, “Cysteine engineered fibronectin type III domain binding molecules” (Janssen Biotech, Inc., priority 2013, dated 2023)
Where “and” joins values, the source holds several entries; their conditions need not be identical. Equal values may be shown once. Read-outs that look alike come from different tables or passages of the source.

Columns and labels:
[1] = system: EGFR-overexpressing human tumor cell line H1573; assay: Cytotoxicity assay in H1573 cells; assay type: cell-based; details: for potency relative to the parent conjugate (in words): VC-MMAF conjugates
Description: Cell killing was assessed by measuring viability of the EGFR-overexpressing human tumor cell line H1573 following exposure to the cysteine variant-cytotoxin conjugates. Cells were plated in black-well, clear bottomed, tissue culture-treated plates (Falcon 353219) at 7000/well in 100 μL/well of phenol red free RPMI media (Gibco 11835-030) with 5% fetal bovine serum (Gibco). Cells were allowed to attach overnight at 37° C. in a humidified 5% CO2 atmosphere. Medium was aspirated from 96-well plate and cells were treated with 50 uL of fresh media and 50 uL of 2× inhibitor made up in fresh media. Cell viability was determined by an endpoint assay with Cell TiterGlo (Promega) at 70 hours. IC50 values were determined by fitting data to the equation for a sigmoidal dose response with variable slope using GraphPad Prism 5 (GraphPad Software). Table 11 reports IC50 values obtained from analysis of the CellTiter Glo data.
Conjugates consisting of ECB147 cysteine variants, 83v2-cys, or Tencon-cys linked to a cytotoxic tubulin inhibitor from the auristatin family (FIG. 2) were tested for target-dependent cytotoxicity in cancer cells. The inhibitor was linked to the cysteine-containing protein via a non-cleavable PEG4 linker or an enzyme-cleavable valine-citrulline or valine-lysine linker. Cell killing was assessed by measuring viability of the EGFR-overexpressing human tumor cell lines H1573 and A431 as well as the EGFR-negative tumor cell line MDA-MB-435 following exposure to the protein-cytotoxin conjugates using the procedure described in Example 4.

[2] = Analytical size exclusion chromatography (percent monomer); assay type: physicochemical; details: NEM-conjugated cysteine variants; SEC, Abs280 monomer region 5.5-6 minutes vs oligomer region 4-5.3 minutes
Description: Size exclusion chromatography was used to determine the aggregation state of the FN3 domains binding EGFR. Aliquots (10 μL) of each purified FN3 domain were injected onto a Superdex 75 5/150 column (GE Healthcare) at a flow rate of 0.3 mL/min in a mobile phase of PBS pH 7.4. Elution from the column was monitored by absorbance at 280 nm.
The percent monomer for each protein was determined by integrating the Abs280 signal and comparing the peak in the monomer region (5.5-6 minutes) to the peaks in the oligomer region (4-5.3 minutes).

[3] = Thermal stability of cysteine-NEM conjugates by DSC; assay type: physicochemical; details: for First Scan Tm: DSC 25-100 °C, 1 °C per minute; for Second Scan Tm: second identical scan
Description: The thermal stability of cysteine-NEM conjugates was assessed by differential scanning calorimetry (DSC). The only the conjugates tested were those determined to express at high levels, conjugate efficiently, and retain EGFR binding. Additionally, cysteine variants within the BC and FG loops were excluded. Stability data was generated by heating a 400 μL aliquot of the variant from 25° C. to 100° C. at a scan rate of 1° C. per minute in a VP-DSC instrument (MicroCal). A second identical scan was completed on the sample in order to assess the reversibility of thermal folding/unfolding. Data was fitted to a 2-state unfolding model in order to calculate the melting temperature (Table 10).

[4] = cysteine variants conjugated to VC-MMAF, Cell TiterGlo at 70 hours, read-out: IC50

Molecule | IC50 [1, 4] | Percent monomer [2] | IC50 ([1]; vcMMAF conjugate, read-out: average IC50 of two replicates) [nM] | First Scan Tm [3] [°C] | Second Scan Tm [3] [°C] | potency relative to the parent conjugate (in words) [1]
WT: Tencon (SEQ ID NO: 265) cysteine variant conjugated to VC-MMAF as a negative control (conjugate, VC-MMAF conjugated via cysteine; Tencon FN3 scaffold) LPAPKNLVVSEVTEDSLRLSWTAPDAAFDSFLIQYQESEKVGEAINLTVPGSERSYDLTGLKPGTEYTVSIYGVKGGHRSNPLSAEFTTGGHHHHHHC | 146 nM and 166 nM |  |  |  |  | 
83v2His6-cys: P54AR4-83v2 parent with C-terminal cysteine (SEQ ID NOs: 217 and 255); NEM and vcMMAF conjugates (conjugate, His6 tag, C-terminal Cys; NEM or vcMMAF conjugate; EGFR binding FN3 domain, NEM and vcMMAF conjugates) MLPAPKNLVVSEVTEDSARLSWDDPWAFYESFLIQYQESEKVGEAIVLTVPGSERSYDLTGLKPGTEYTVSIYGVHNVYKDTNMRGLPLSAIFTTGGHHHHHHC | 0.61 nM and 0.79 nM | 97% | 0.7 | 71 | 71 | 
N6C: cysteine variant of P54AR4-83v2 (printed SEQ ID NOS: 210 and 248); NEM and VC-MMAF conjugates (conjugate, NEM or vcMMAF conjugate; EGFR binding FN3 domain, NEM and VC-MMAF conjugates) MLPAPKCLVVSEVTEDSARLSWDDPWAFYESFLIQYQESEKVGEAIVLTVPGSERSYDLTGLKPGTEYTVSIYGVHNVYKDTNMRGLPLSAIFTT | 0.16 nM | 94% |  | 71 | 70 | over two times more potent than the parent
T93C: cysteine variant of P54AR4-83v2 (SEQ ID NOS: 216 and 254); NEM and VC-MMAF conjugates (conjugate, NEM or vcMMAF conjugate; EGFR binding FN3 domain, NEM and VC-MMAF conjugates) MLPAPKNLVVSEVTEDSARLSWDDPWAFYESFLIQYQESEKVGEAIVLTVPGSERSYDLTGLKPGTEYTVSIYGVHNVYKDTNMRGLPLSAIFCT | 0.2 nM | 100% |  | 69 | 69 | over two times more potent than the parent
E53C: cysteine variant of P54AR4-83v2 (SEQ ID NOS: 204 and 242); NEM and VC-MMAF conjugates (conjugate, NEM or vcMMAF conjugate; EGFR binding FN3 domain, NEM and VC-MMAF conjugates) MLPAPKNLVVSEVTEDSARLSWDDPWAFYESFLIQYQESEKVGEAIVLTVPGSCRSYDLTGLKPGTEYTVSIYGVHNVYKDTNMRGLPLSAIFTT | 0.09 nM | 97% |  | 76 | 75 | over two times more potent than the parent
V8C: cysteine variant of P54AR4-83v2 (SEQ ID NOS: 189 and 227); NEM and VC-MMAF conjugates (conjugate, NEM or vcMMAF conjugate; EGFR binding FN3 domain, NEM and VC-MMAF conjugates) MLPAPKNLCVSEVTEDSARLSWDDPWAFYESFLIQYQESEKVGEAIVLTVPGSERSYDLTGLKPGTEYTVSIYGVHNVYKDTNMRGLPLSAIFTT | 0.35 nM | 91% |  | 69 | 69 | 
V9C (conjugate, left off: small tags and cut ends) LPAPKNLVCSEVTEDSARLSWDDPWAFYESFLIQYQESEKVGEAIVLTVPGSERSYDLTGLKPGTEYTVSIYGVHNVYKDTNMRGLPLSAIFTT |  | double peak |  | 46 | 46 | 
G42C (conjugate, left off: small tags and cut ends) LPAPKNLVVSEVTEDSARLSWDDPWAFYESFLIQYQESEKVCEAIVLTVPGSERSYDLTGLKPGTEYTVSIYGVHNVYKDTNMRGLPLSAIFTT |  | 87% |  | 65 | 67 | 
E39C (conjugate, left off: small tags and cut ends) LPAPKNLVVSEVTEDSARLSWDDPWAFYESFLIQYQESCKVGEAIVLTVPGSERSYDLTGLKPGTEYTVSIYGVHNVYKDTNMRGLPLSAIFTT |  | 100% |  | 67 | 69 | 
G51C (conjugate, left off: small tags and cut ends) LPAPKNLVVSEVTEDSARLSWDDPWAFYESFLIQYQESEKVGEAIVLTVPCSERSYDLTGLKPGTEYTVSIYGVHNVYKDTNMRGLPLSAIFTT |  | 96% |  | 61 | 61 | 
E29C (conjugate, left off: small tags and cut ends) LPAPKNLVVSEVTEDSARLSWDDPWAFYCSFLIQYQESEKVGEAIVLTVPGSERSYDLTGLKPGTEYTVSIYGVHNVYKDTNMRGLPLSAIFTT |  | 85% |  | 63 | 66 | 
P50C (conjugate, left off: small tags and cut ends) LPAPKNLVVSEVTEDSARLSWDDPWAFYESFLIQYQESEKVGEAIVLTVCGSERSYDLTGLKPGTEYTVSIYGVHNVYKDTNMRGLPLSAIFTT |  | 100% |  | 63 | 65 | 
V49C (conjugate, left off: small tags and cut ends) LPAPKNLVVSEVTEDSARLSWDDPWAFYESFLIQYQESEKVGEAIVLTCPGSERSYDLTGLKPGTEYTVSIYGVHNVYKDTNMRGLPLSAIFTT |  | 88% |  | 54 | 55 | 
T13C (conjugate, left off: small tags and cut ends) LPAPKNLVVSEVCEDSARLSWDDPWAFYESFLIQYQESEKVGEAIVLTVPGSERSYDLTGLKPGTEYTVSIYGVHNVYKDTNMRGLPLSAIFTT |  | 82% |  | 63 | 63 | 
P63C (conjugate, left off: small tags and cut ends) LPAPKNLVVSEVTEDSARLSWDDPWAFYESFLIQYQESEKVGEAIVLTVPGSERSYDLTGLKCGTEYTVSIYGVHNVYKDTNMRGLPLSAIFTT |  | 92% |  | 60 | 62 | 
R18C (conjugate, left off: small tags and cut ends) LPAPKNLVVSEVTEDSACLSWDDPWAFYESFLIQYQESEKVGEAIVLTVPGSERSYDLTGLKPGTEYTVSIYGVHNVYKDTNMRGLPLSAIFTT |  | 93% |  | 62 | 62 | 
V12C (conjugate, left off: small tags and cut ends) LPAPKNLVVSECTEDSARLSWDDPWAFYESFLIQYQESEKVGEAIVLTVPGSERSYDLTGLKPGTEYTVSIYGVHNVYKDTNMRGLPLSAIFTT |  | 66% |  | 58 | 58 | 
